We go through two molecules from patent US20160159929A1 (ABLBIO, published 2016).

Test [1] concerns the target T1, human DLL4 (27-251)-Fc alanine substitution mutant at position 64 (histidine) (human, UniProt Q9NR61 27-251).
T1 construct: range 27-251; also called amino acid mutant at position 64; not shown: Fc protein
Briefly: Western blot of mutant DLL4 (27-251)-Fc, detected with HRP anti-human Fab. As to the method:
The mutant expression media incubated for 4 days were centrifuged at 1000 rpm at room temperature for 10 minutes to remove the suspended material, and then filtered through a 0.45-μm syringe. For Western blotting analysis, the level of the protein in the mutant expression media were quantified using Octet® system (ForteBio) so that a uniform amount of the mutant would be loaded on SDS gel. Next, 20 μl of each of the mutant expression media was loaded on each of two Novex 4-12% Bis/Tris gels, and subjected to gel electrophoresis using MOPS buffer at 140 V for 50 minutes. As a control, a protein encoding a deletion fragment (amino acid residues 27 to 251) of the extracellular domain of wild-type DLL4 was used. After completion of the electrophoresis, the protein band was transferred to a polyvinylidene difluoride membrane. A total of two processes were performed.

In test [2] the target is T2, human VEGF (hVEGF, R&D Systems, cat: 293-VE) (human, UniProt P15692-4 27-191).
T2 construct: Bought protein; also called vascular endothelial growth factor
Briefly: SPR (Biacore T200), hVEGF immobilised on CM5, antibody as analyte, bivalent binding model. As to the method:
(§1) Specifically, Biacore T200 was used in SPR analysis and HBS-EP (10 mM HEPES, pH7.4, 150 mM NaCl, 3 mM EDTA, […] surfactant P20) was used as a running buffer. Surface preparation was done by using a surface preparation target immobilization tool of a wizard program (condition: 25° C., 5 μl/min). Ligands (hVEGF and hDLL4) were diluted in 10 mM sodium acetate buffer (pH 4.5) to final concentrations of 5 μg/ml and 4 μg/ml, respectively, and then immobilized to the surface of CM5 chip by a target immobilization level for each test group. In the immobilization process, two flow cells were included as one set wherein the first and third flow cells were set as a blank, the second flow cell has hVEGF immobilized to the surface thereof, and the fourth flow cell was set as hDLL4 in the present experiment. The first and third flow cells acted as a reference to account for experimental variability due to nonspecific bindings and buffer effects, and in the analysis, subtracted RU values (Fc2−Fc1, and Fc4−Fc3) were used as experimental results. The Avastin-DLL4 BsAb dual-targeting antibody that binds to hVEGF and hDLL4 was diluted in a running buffer to a final molar concentration of 100 nM, serially diluted 1/2 times, and each of the 5 dilutions was analyzed. The sample to be analyzed was prepared to have high purity and high concentration, enough to be diluted more than 100 times at minimum, thereby minimizing buffer effect. All analysis was done by using a wizard program, screening duplicates for each sample and a regeneration step was included in between each analysis step, so that the standard of experiment remains constant.
(§2) The experimental results were analyzed by Biaevaluation software version 4.0. At this time, to determine the RU values (Fc2−Fc1 and Fc4−Fc3), the baseline was set to zero, the value measured at a buffer injection part (analyte, 0 nM) was subtracted from a whole sensorgram. Then, the resulting RU value was analyzed by a Bivalent binding model to determine a binding affinity. The factors to be analyzed include kₐ (M⁻¹s⁻¹), kd (s⁻¹), and KD (M).

Test [3] addresses T3, human DLL4 protein (R&D Systems, Cat: 1506-D4/CF), extracellular domain, residues 27 to 524, C-terminal … (human, UniProt Q9NR61 27-524).
T3 construct: range 27-524; Bought protein; also called rhDLL4; hDLL4
In words: SPR (Biacore T200), hDLL4 immobilised on CM5, antibody as analyte, bivalent binding model. Here is the method:
as §1, §2

Test [4] has as its target T3, human DLL4 protein (R&D Systems, Cat: …). Briefly: competition ELISA: antibody premixed with human DLL4-His (600 ng/ml), transferred to plate-coated hNotch-1-hFc, bound DLL4 detected with anti-His HRP. Here is the method:
The neutralization effect of the Avastin-DLL4 BsAb dual-targeting antibody was assessed using an ELISA-based solution competition assay. Specifically, each well of a 96-well microtiter plate (Nunc-Immuno Plate, NUNC, Rochester, N.Y.) was coated with 100 μl of 500 ng/ml of hNotch-1-hFc protein (R&D Systems) (diluted in PBS) at 4° C. overnight, and then treated with BSA for 2 hours to block non-specific binding sites.
The Avastin-DLL4 BsAb dual-targeting antibody (purified protein) on the 96-well microtiter plate was premixed with serial dilutions of antigen protein (human DLL4-His, 600 ng/ml) at an […] concentration ranging from 0 nM to 140 nM. The antigen/antibody mixture was incubated for 30 minutes, and then transferred to a microtiter plate precoated with the DLL4 receptor hNotch-1 protein (50 ng/well) in order to measure free […]. Then, the plate was incubated for 2 hours and washed five times with 0.05% tween 20-containing PBS. In order to detect the DLL4 antigen bound to the plate, an HRP-conjugated His […] antibody reagent (Roche applied science) was diluted at a ratio of 1:800, and the washed microtiter plate was treated with the diluted antibody reagent, and then allowed to react at 37° C. for 1 hour. […]

The target is the same in test [5]. Briefly: ELISA on plate-coated rhDLL4, HRP anti-Fab detection, absorbance at 450 nm; the value is column C (midpoint) of the printed 4-P fit; preparation labelled Transient; the Conc axis prints no unit, nM is taken from paragraph 139. Here is the method: (§3) The binding affinities of the dual-targeting proteins for DLL4 and VEGF were assessed using an ELISA-based solution competition assay. Specifically, a 96-well plate (Nunc-Immuno Plate, NUNC, Rochester, N.Y.) was coated with 50 ng/ml of hVEGF (R&D Systems, cat: 293-VE) and 200 ng/ml of rhDLL4 (R&D Systems, cat: 1506-D4/CF) in an amount of 100 μl per well at 4° C. overnight, and non-specific binding sites were blocked with BSA (bovine serum albumin) for 2 hours. The antibody on the 96-well microtiter plate was diluted 1/5-fold from 128 nM and 64 nM, and 100 μl of each of the dilutions was added to each well of the plate coated with hDLL4 and hVEGF proteins. Then, the plate was incubated for 2 hours, and washed five times with 0.05% tween 20-containing PBS. In order to detect the plate-bound antibody, an HRP-conjugated anti-Fab antibody (Pierce, cat: 31414)) was diluted at a ratio of 1:40,000, transferred to the washed 96-well microtiter plate, and then allowed to react at 37° C. for 1 hour. After the reaction, color development was performed using a colorimetric substrate (3,3′,5,5′-tetramethylbenzidine; Sigma-Aldrich). The enzymatic reaction was stopped using 0.5 mol/l of sulfuric acid. The absorbance at 450 nm was measured using SpectraMax 190 (molecular device).

Test [6] concerns the target T2, human VEGF (hVEGF, R&D Systems, cat: …). In words: ELISA on plate-coated hVEGF, HRP anti-Fab detection, absorbance at 450 nm; the value is column C (midpoint) of the printed 4-P fit; preparation labelled (GS pool) cell line; the Conc axis prints no unit, nM is taken from paragraph 139. Here is the method: as §3
The target of test [7] is T3, human DLL4 protein (R&D Systems, Cat: …). In words: ELISA on plate-coated rhDLL4, HRP anti-Fab detection, absorbance at 450 nm; the value is column C (midpoint) of the printed 4-P fit; preparation labelled (GS pool) cell line; the Conc axis prints no unit, nM is taken from paragraph 139. Here is the method: as §3
The target of test [8] is T2, human VEGF (hVEGF, R&D Systems, cat: …). In words: ELISA on plate-coated hVEGF, HRP anti-Fab detection, absorbance at 450 nm; the value is column C (midpoint) of the printed 4-P fit y = (A - D)/(1 + (x/C)^B) + D; preparation labelled Transient; the Conc axis prints no unit, nM is taken from paragraph 139 (dilutions from 128 nM and 64 nM). Here is the method: as §3

T2 sequence (P15692 other isoform, or with tags, fused parts or gaps limits assumed): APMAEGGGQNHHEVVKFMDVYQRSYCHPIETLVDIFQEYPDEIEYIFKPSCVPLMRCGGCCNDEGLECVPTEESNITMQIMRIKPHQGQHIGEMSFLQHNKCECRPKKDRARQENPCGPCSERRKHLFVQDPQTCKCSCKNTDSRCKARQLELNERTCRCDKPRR
T3 sequence (Q9NR61 other isoform, or with tags, fused parts or gaps limits assumed): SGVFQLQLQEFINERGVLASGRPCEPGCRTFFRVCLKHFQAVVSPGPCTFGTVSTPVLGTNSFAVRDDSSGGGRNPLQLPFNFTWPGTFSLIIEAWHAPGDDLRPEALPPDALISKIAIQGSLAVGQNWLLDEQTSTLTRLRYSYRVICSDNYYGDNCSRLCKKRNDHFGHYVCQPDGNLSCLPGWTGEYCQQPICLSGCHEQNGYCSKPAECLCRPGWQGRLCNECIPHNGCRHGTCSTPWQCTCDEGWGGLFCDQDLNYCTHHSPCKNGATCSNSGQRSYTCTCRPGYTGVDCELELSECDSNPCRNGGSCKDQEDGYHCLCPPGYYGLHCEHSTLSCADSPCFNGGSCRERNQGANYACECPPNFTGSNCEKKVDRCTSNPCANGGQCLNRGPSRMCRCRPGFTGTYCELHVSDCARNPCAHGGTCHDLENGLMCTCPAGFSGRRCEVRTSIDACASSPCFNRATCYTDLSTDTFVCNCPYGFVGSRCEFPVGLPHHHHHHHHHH
T1 sequence (Q9NR61 other isoform, or with tags, fused parts or gaps mutant limits assumed): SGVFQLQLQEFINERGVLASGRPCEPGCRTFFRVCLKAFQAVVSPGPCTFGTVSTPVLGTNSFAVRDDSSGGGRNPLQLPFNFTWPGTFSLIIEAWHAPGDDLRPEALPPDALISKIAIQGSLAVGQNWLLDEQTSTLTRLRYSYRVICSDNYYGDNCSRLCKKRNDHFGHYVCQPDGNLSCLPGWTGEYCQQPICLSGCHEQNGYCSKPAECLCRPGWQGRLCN

B1: MLCK-2 anti-DLL4 antibody (antibody, V domains shown)
VH: EVQLLESGGGLVQPGGSLRLSCAASGFTFSDYAMSWVRQAPGKCLEWVSWIYSGSGNKYYADSVKGRFTISRDNSKNTLYLQMNSLRAEDTAVYYCARADWPFDYWGQGTLVTVSS
VL: QSVLTQPPSASGTPGQRVTISCTGSSSNIGSNDVTWYQQLPGTAPKLLIYADSKRPSGVPDRFSGSKSGTSASLAISGLRSEDEADYYCGTWDYSLSAYVFGCGTKLTVL
notes: also called MLCK2 antibody
As to B1, the binding result in test [1] is recorded as “no binding (tested: 1 µg/mL)”.

B2: Avastin-DLL4 BsAb dual-targeting antibody (bispecific antibody)
heavy: EVQLVESGGGLVQPGGSLRLSCAASGYTFTNYGMNWVRQAPGKGLEWVGWINTYTGEPTYAADFKRRFTFSLDTSKSTAYLQMNSLRAEDTAVYYCAKYPHYYGSSHWYFDVWGQGTLVTVSSASTKGPSVFPLAPSSKSTSGGTAALGCLVKDVFPEPVTVSWNSGALTSGVHTFPAVLQSSGLYSLSSVVTVPSSSLGTQTYICNVNHKPSNTKVDKKVEPKSCDKTHTCPPCPAPELLGGPSYFLFPPKPKDTLMISRTPEVTCVVVDVSHEDPEVKFNWYVDGVEVHNAKTKPREEQYNSTYRVVSVLTVLHQDWLNGKEYKCKVSNKALPAPIEKTISKAKGQPREPQVYTLPPSRHMTKNQVSLTCLVKGFYPSDIAVEWESNGQPENNYKTTPPVLDSDGSFFLYSKLTVDKSRWQQGNVFSCSVMHEALHNHYTQKSLSLSPGKGGGGSGGGGSGGGGSQSVLTQPPSASGTPGQRVTISCTGSSSNIGSNDVTWYQQLPGTAPKLLIYADSKRPSGVPDRFSGSKSGTSASLAISGLRSEDEADYYCGTWDYSLSAYVFGCGTKLTVLGGGGSGGGGSGGGGSGGGGSEVQLLESGGGLVQPGGSLRLSCAASGFTFSDYAMSWVRQAPGKCLEWVSWIYSGSGNKYYADSVKGRFTISRDNSKNTLYLQMNSLRAEDTAVYYCARADWPFDYWGQGTLVTVSS
light: not shown
notes: made in CHO cells; also called VEGF-DLL4 BsAb; dual-targeting protein
Consider B2, for which the Kd is 0.126 nM in test [2] and 30.2 nM in test [3]. In addition, the koff in test [2] is 1.68e-06 s⁻¹; in test [3] it was 0.000587 s⁻¹. The kon in test [2] was 13400 M⁻¹ s⁻¹; in test [3], 19400 M⁻¹ s⁻¹. The same molecule displayed an IC50 in test [4] of 1.12 nM. Besides, the EC50 in test [5] was 0.264 nM; in test [6], 0.43 nM; in test [7] it was 0.261 nM; in test [8], 0.337 nM.
